The values that follow come from patent publication US5039791A, “Peptide fragments of tissue plasminogen activator” (Monsanto Company, priority 1989, dated 1991).

Where no end group is shown, it is not given here.

In the assay the target is T1, fibrin (Homo sapiens, UniProt P02671+P02675+P02679).
T1 construct: purchased Kabi Vitrum
T1 sequence (P02671 20-644 isoform P02671-2 limits assumed): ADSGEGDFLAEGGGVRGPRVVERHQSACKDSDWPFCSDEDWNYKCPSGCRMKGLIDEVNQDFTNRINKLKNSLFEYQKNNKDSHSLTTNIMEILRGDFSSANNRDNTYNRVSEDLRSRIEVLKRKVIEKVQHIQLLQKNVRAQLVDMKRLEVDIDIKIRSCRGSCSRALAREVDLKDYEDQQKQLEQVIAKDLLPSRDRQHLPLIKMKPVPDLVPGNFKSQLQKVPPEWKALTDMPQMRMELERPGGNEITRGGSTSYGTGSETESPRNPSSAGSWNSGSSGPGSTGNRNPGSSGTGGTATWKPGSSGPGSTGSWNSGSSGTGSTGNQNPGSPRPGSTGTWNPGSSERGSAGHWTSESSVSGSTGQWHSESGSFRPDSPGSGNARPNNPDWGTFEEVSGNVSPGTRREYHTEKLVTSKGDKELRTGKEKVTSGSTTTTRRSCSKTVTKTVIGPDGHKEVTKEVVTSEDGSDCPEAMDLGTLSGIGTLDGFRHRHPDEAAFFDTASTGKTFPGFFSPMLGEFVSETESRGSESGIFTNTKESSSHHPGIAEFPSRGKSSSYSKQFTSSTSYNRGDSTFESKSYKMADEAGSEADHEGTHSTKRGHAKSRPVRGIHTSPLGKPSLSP
T1 sequence (P02675 45-491 limits assumed): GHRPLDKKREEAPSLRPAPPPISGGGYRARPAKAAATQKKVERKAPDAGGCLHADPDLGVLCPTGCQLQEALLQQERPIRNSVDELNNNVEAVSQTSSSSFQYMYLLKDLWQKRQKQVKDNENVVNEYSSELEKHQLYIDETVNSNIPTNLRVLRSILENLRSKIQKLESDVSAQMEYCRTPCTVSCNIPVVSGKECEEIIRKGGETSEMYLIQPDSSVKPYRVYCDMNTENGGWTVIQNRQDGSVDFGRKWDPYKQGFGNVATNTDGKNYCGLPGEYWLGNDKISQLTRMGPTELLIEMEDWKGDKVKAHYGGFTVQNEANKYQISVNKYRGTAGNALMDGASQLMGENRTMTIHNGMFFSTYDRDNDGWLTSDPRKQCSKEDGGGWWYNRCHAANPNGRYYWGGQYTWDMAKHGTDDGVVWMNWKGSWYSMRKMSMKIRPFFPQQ
T1 sequence (P02679 27-437 isoform P02679-2 limits assumed): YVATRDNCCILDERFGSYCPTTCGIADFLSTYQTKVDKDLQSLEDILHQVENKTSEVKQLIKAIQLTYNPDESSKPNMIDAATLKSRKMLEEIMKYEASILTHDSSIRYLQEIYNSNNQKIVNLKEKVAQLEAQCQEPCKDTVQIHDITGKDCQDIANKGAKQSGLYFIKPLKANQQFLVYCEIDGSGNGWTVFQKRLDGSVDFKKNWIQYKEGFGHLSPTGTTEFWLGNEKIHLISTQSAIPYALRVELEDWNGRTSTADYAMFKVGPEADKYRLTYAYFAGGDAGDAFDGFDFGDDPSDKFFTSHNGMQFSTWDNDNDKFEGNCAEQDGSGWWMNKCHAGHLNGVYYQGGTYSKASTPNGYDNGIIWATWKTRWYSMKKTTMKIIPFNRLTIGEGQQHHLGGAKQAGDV
Briefly: Fibrin binding: binding of tPA to fibrin, tPA antigen in supernatant by ELISA. As to conditions: 15 μg/ml peptide; 200 ng/ml single chain melanoma tPA, 200 μg/ml human fibrinogen; no peptide = 48. As to the method: Binding of tPA to fibrin was measured using the conventional method of Rijken et al., J. Biol. Chem. 257, 2920-2925 (1982). This method involves mixing thrombin with a solution containing tPA and fibrinogen, centrifuging the resulting clot and measuring the concentration of tPA antigen in the supernatant. In a final volume of 200 μl, the following were combined: 200 ng/ml single chain melanoma tPA, 200 μg/ml human fibrinogen, 15 μg/ml tPA peptide, 1.1 mg/ml bovine serum albumin, 0.55 mg/ml bovine gamma globulin and 10 mM ε-amino caproic acid in PBSAT. Controls omitted fibrinogen, peptide or both. Mixtures were clotted by the addition of 1 unit/ml bovine thrombin, incubated one hour at room temperature and centrifuged. tPA antigen in the supernatant was measured by conventional ELISA and the percentage bound calculated by difference using the antigen level of a control mixture with no fibrinogen as 0% bound. […] An ELISA assay kit for tPA and PAI-1 was purchased from American Diagnostica Inc. and assays were performed according to printed protocols supplied by the manufacturer with the kit except that a single lot of melanoma tPA from American Diagnostica Inc. (product 111, lot 47-01) was used as the antigen standard throughout this work and 5.0 mg/ml of BSA and 2.5 mg/ml of bovine gamma globulin were included in ELISA buffers.
For orientation: ELISA stands for enzyme-linked immunosorbent assay.

On to “CDVPSCSTCGLRQYSQPQFRIKGGL-amide (CDVPSCSTCGLRQYSQPQFRIKGGL-NH2; cysteine pairing not given here) [Peptide 169, 25 amino acid synthetic peptide amide fragment of native human tPA]”, for which the “% Bound (binding of tPA to fibrin)” value is reported as 55%.

For “CNSGRAQCHSVPVKSCSEPRCFNGG-amide (CNSGRAQCHSVPVKSCSEPRCFNGG-NH2; cysteine pairing not given here) [Peptide 147, 25 amino acid synthetic peptide amide fragment of native human tPA]”, the “% Bound (binding of tPA to fibrin)” value is 55%. In the case of “DGDAKPWCHVLKNRRLTWEYCDVPS-amide (DGDAKPWCHVLKNRRLTWEYCDVPS-NH2; cysteine pairing not given here) [Peptide 167, 25 amino acid synthetic peptide amide fragment of native human tPA]” it was 50%; in that of “EFCSTPACSEGNSDCYFGNGSAYRG [Peptide 160, 25 amino acid synthetic peptide fragment of native human tPA]”, 56%.

“ERFPPHHLTVILGRTYRVVPGEEEQ-NH2 [Peptide 176]”: the “% Bound (binding of tPA to fibrin)” value is 53%.

In the case of “ERLKEAHVRLYPSSRCTSQHLLNRT-NH2 [Peptide 186]”, the “% Bound (binding of tPA to fibrin)” value is 50%. For the substance “GNSDCYFGNGSAYRGTHSLTESGAS-NH2 [Peptide 161]”, the “% Bound (binding of tPA to fibrin)” value stood at 57%.

For “LCAGDTRSGGPQANLHDACQGDSGG-amide [Peptide 189, 25 amino acid synthetic peptide amide fragment of native human tPA]”, the “% Bound (binding of tPA to fibrin)” value was 50%. Then “LKNRRLTWEYCDVPSCSTCGLRQYS [Peptide 168, 25 amino acid synthetic peptide fragment of native human tPA]”, with 54%. Turning to “LLNRTVTDNMLCAGDTRSGGPQANL-NH2 [Peptide 188]”, the “% Bound (binding of tPA to fibrin)” value amounted to 52%. Take “LRSNRVEYCWCNSGRAQCHSVPVKS-amide (LRSNRVEYCWCNSGRAQCHSVPVKS-NH2; cysteine pairing not given here) [Peptide 146, 25 amino acid synthetic peptide amide fragment of native human tPA]”: the “% Bound (binding of tPA to fibrin)” value is listed as 54%. Regarding “LYFSDFVCQCPEGFAGKCCEIDTRA [Peptide 150, 25 amino acid synthetic peptide fragment of native human tPA]”, the “% Bound (binding of tPA to fibrin)” value turned out to be 52%. Then “PEGFAGKCCEIDTRATCYEDQGISY-amide (PEGFAGKCCEIDTRATCYEDQGISY-NH2; cysteine pairing not given here) [Peptide 151, 25 amino acid synthetic peptide amide fragment of native human tPA]”, with 53%. In the case of “QESSVVRTVCLPPADLQLPDWTECE-amide [Peptide 182, 25 amino acid synthetic peptide amide fragment of native human tPA]” it was 52%; in that of “QLKSDSSRCAQESSVVRTVCLPPAD-amide (QLKSDSSRCAQESSVVRTVCLPPAD-NH2; cysteine pairing not given here) [Peptide 181, 25 amino acid synthetic peptide amide fragment of native human tPA]”, 49%; in that of “QQHQSWLRPVLRSNRVEYCWCNSGR-amide (QQHQSWLRPVLRSNRVEYCWCNSGR-NH2; cysteine pairing not given here) [Peptide 145, 25 amino acid synthetic peptide amide fragment of native human tPA]”, 56%. Consider RRGARSYQVICRDEKTQMIYQQHQS [Peptide 143], for which the “% Bound (binding of tPA to fibrin)” value is given as 57%. As to “SMILIGKVYTAQNPSAQALGLGKHN-NH2 [Peptide 164]”, the “% Bound (binding of tPA to fibrin)” value is 53%. Then SPSQEIHARFRRGARSYQVICRDEK [Peptide 142], with 58%; and “TAESGAECTNWNSSALAQKPYSGRR-NH2 [Peptide 154]”, with 56%. In the case of WNSSALAQKPYSGRRPDAIRLGLGN [Peptide 155] it was 54%; in that of “YPSSRCTSQHLLNRTVTDNMLCAGD-amide [Peptide 187, 25 amino acid synthetic peptide amide fragment of native human tPA]”, 51%; in that of “YSGRRPDAIRLGLGNHNYCRNPDRD-NH2 [Peptide 156]”, 52%. Consider “YVFKAGKYSSEFCSTPACSEGNSDC-amide (YVFKAGKYSSEFCSTPACSEGNSDC-NH2; cysteine pairing not given here) [Peptide 159, 25 amino acid synthetic peptide amide fragment of native human tPA]”, for which the “% Bound (binding of tPA to fibrin)” value is recorded as 54%.
